Measurements published in patent publication US20210300992A1.

Legend:
[1] = molecular target: human leukemia inhibitory factor (LIF), soluble (human) (UniProt P15018); assay: yeast surface display, flow cytometry; score from summed fluorescence at 10 pM and 100 pM human LIF, normalized to wild-type and to expression
[2] = molecular target: human leukemia inhibitory factor (LIF), soluble (human) (UniProt P15018); assay: yeast surface display, flow cytometry; soluble human LIF titrated (0.001 to 100 nM), detected with a fluorescent antibody
[3] = molecular target: human leukemia inhibitory factor (LIF), soluble (human) (UniProt P15018); assay: yeast surface display, flow cytometry; Score column of the table of sorted gp130 CBM variants (the filing gives 100 pM and 1 nM human LIF for the gp130 binding scores)

Chain of human leukemia inhibitory factor (LIF), soluble (human) (P15018 23-202 limits assumed): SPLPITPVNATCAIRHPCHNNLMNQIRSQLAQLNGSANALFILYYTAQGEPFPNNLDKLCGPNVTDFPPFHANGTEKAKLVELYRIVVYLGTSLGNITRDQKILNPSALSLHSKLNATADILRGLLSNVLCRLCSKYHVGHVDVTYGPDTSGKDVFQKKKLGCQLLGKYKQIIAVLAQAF

Row | Substance | Score (normalized binding score) [1] | EC50 (read off the curve) [2] [nM] | Score (binding score) [3]
1 | PRDSAID (receptor) | 15.8 |  | 
2 | PDD (receptor) | 7.71 | 0.4 | 
3 | ELDI (receptor) |  |  | 15.9
4 | ELRDSLE (receptor) |  |  | 23.6
5 | PVVIDN (receptor) | 13.9 |  | 
